Measurements published in US20210246166A1 (Bayer, published 2021).
Numbered stars: 1 amine (or outer) side, 2 acyl side, 3 side chain; on linkers, the order of the positions; unused ones are H or OH. Bridge positions count the residues as written; N and C are the ends. Square brackets hold non-standard residues; d marks the D form. Ends that are not written are not given here. * marks the point of attachment. (N-Benzyl)D = (2S)-2-Amino-4-(benzylamino)-4-oxobutanecarboxylic acid, O=C(C[C@H](N[*:1])C(=O)[*:2])NCc1ccccc1; βDap = *Dap: Dap linked through its additional amino group, O=C([C@H](CN[*:1])N[*:3])[*:2]; X3 = (1R,3S)‑3‑(Amino)cyclopentanecarboxylic acid, O=C([C@@H]1CC[C@H](N[*:1])C1)[*:2]; X4 = (1S,3R)‑3‑(Amino)cyclopentanecarboxylic acid, O=C([C@H]1CC[C@@H](N[*:1])C1)[*:2]; X9 = (S)‑3‑(1-Pyrrolidine-2-yl)‑propionic acid, O=C(CC[C@@H]1CCCN1[*:1])[*:2]; X8 = (R)‑4‑Amino‑6‑methylheptanoic acid, CC(C)C[C@@H](CCC(=O)[*:2])N[*:1]; X6 = (S)‑(1-Piperidin-3-yl)‑acetic acid, O=C(C[C@@H]1CCCN([*:1])C1)[*:2]; X11 = (S)‑Piperidine‑3‑carboxylic acid, O=C([C@H]1CCCN([*:1])C1)[*:2]; X14 = (2,4-dioxoimidazolidin-1-yl)acetic acid, O=C1CN(CC(=O)*)C(=O)N1; Nip(3R) = O=C([C@@H]1CCCN([*:1])C1)[*:2]; Oic = O=C(O)[C@@H]1C[C@@H]2CCCC[C@@H]2N1; βPro(3S) = O=C([C@H]1CCN([*:1])C1)[*:2]; Pen = CC(C)(S)[C@H](N)C(=O)O; β3hP = O=C(O)C[C@@H]1CCCN1; NMeA = CN[C@@H](C)C(=O)O; Sar = CNCC(=O)O

T1: recombinant rat MASP1 active protease (amino acids 302-704, C-terminal His Tag) (rat, UniProt Q8CHN8 302-704)
T1 sequence: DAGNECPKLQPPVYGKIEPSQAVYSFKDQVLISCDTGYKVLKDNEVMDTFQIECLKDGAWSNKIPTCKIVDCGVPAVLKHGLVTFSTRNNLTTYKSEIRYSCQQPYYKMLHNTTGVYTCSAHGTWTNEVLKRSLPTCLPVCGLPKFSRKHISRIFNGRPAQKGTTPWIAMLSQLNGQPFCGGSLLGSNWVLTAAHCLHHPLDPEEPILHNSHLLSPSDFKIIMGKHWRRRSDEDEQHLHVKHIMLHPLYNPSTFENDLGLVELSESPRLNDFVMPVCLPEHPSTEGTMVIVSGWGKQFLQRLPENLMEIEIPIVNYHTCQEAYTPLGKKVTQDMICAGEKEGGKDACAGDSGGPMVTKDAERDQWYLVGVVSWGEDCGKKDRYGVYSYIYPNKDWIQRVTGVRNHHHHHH


Legend:
[1] = biological target: T1, recombinant rat MASP1 active protease …; assay: cell-based or functional assay
[2] = biological target: recombinant rat MASP2 active protease (amino acids 296-685, C-terminal His Tag) (rat, UniProt Q9JJS8 296-685); assay: cell-based or functional assay
recombinant rat MASP2 active protease (amino acids 296-685, C-terminal His Tag), sequence (Q9JJS8 other isoform, or with tags, fused parts or gaps limits assumed): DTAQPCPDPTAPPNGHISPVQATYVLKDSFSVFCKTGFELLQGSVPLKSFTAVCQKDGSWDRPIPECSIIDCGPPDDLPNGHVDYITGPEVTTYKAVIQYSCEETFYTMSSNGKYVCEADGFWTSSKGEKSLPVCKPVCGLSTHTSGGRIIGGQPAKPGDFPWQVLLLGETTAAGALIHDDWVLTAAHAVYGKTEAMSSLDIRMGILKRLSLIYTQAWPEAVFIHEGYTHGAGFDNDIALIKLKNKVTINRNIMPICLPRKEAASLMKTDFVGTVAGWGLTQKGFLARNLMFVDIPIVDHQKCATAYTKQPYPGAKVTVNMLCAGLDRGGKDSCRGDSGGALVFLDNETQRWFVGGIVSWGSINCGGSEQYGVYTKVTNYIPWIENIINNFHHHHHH

rat MASP1 IC50 [1] | rat MASP2 IC50 [2] | Binder
39 nM | 30 nM | [Sar]ICSRSLP[Oic]I[Pen]IP[βPro(3S)]-OH (disulfide 3-11; N-terminus assumed; SMILES CC[C@H](C)[C@H](NC(=O)CNC)C(=O)N[C@H]1CSSC(C)(C)[C@@H](C(=O)N[C@H](C(=O)N2CCC[C@H]2C(=O)N2CC[C@H](C(=O)O)C2)[C@@H](C)CC)NC(=O)[C@H]([C@@H](C)CC)NC(=O)[C@@H]2C[C@@H]3CCCC[C@@H]3N2C(=O)[C@@H]2CCCN2C(=O)[C@H](CC(C)C)NC(=O)[C@H](CO)NC(=O)[C@H](CCCNC(=N)N)NC(=O)[C@H](CO)NC1=O) [Example 456: ((N-Me)G)-IC+SRSLP-(Oic)-I-(Pen)+IP-((S)-Pyrrolidine-3-carboxylic acid)-OH]
210 nM | 69 nM | [X11]ICSRSLP[Oic]I[Pen]I-OH (disulfide 3-11; N-terminus assumed; SMILES CC[C@H](C)[C@H](NC(=O)[C@H]1NC(=O)[C@H]([C@@H](C)CC)NC(=O)[C@@H]2C[C@@H]3CCCC[C@@H]3N2C(=O)[C@@H]2CCCN2C(=O)[C@H](CC(C)C)NC(=O)[C@H](CO)NC(=O)[C@H](CCCNC(=N)N)NC(=O)[C@H](CO)NC(=O)[C@@H](NC(=O)[C@@H](NC(=O)[C@H]2CCCNC2)[C@@H](C)CC)CSSC1(C)C)C(=O)O) [Example 460: ((S)-Piperidine-3-carboxylic acid)-IC+SRSLP-(Oic)-I-(Pen)+I-OH]
36 nM | 37 nM | [Sar]ICSRSLP[Oic]I[Pen]IP[X4]-OH (disulfide 3-11; N-terminus assumed; SMILES CC[C@H](C)[C@H](NC(=O)CNC)C(=O)N[C@H]1CSSC(C)(C)[C@@H](C(=O)N[C@H](C(=O)N2CCC[C@H]2C(=O)N[C@@H]2CC[C@H](C(=O)O)C2)[C@@H](C)CC)NC(=O)[C@H]([C@@H](C)CC)NC(=O)[C@@H]2C[C@@H]3CCCC[C@@H]3N2C(=O)[C@@H]2CCCN2C(=O)[C@H](CC(C)C)NC(=O)[C@H](CO)NC(=O)[C@H](CCCNC(=N)N)NC(=O)[C@H](CO)NC1=O) [Example 452: ((N-Me)G)-IC+SRSLP-(Oic)-I-(Pen)+IP-((1S,3R)-3-(Amino)cyclopentanecarboxylic acid)-OH]
46 nM | 46 nM | [Sar]ICSRSLP[Oic]I[Pen]IP[X6]-OH (disulfide 3-11; N-terminus assumed; SMILES CC[C@H](C)[C@H](NC(=O)CNC)C(=O)N[C@H]1CSSC(C)(C)[C@@H](C(=O)N[C@H](C(=O)N2CCC[C@H]2C(=O)N2CCC[C@@H](CC(=O)O)C2)[C@@H](C)CC)NC(=O)[C@H]([C@@H](C)CC)NC(=O)[C@@H]2C[C@@H]3CCCC[C@@H]3N2C(=O)[C@@H]2CCCN2C(=O)[C@H](CC(C)C)NC(=O)[C@H](CO)NC(=O)[C@H](CCCNC(=N)N)NC(=O)[C@H](CO)NC1=O) [Example 451: ((N-Me)G)-IC+SRSLP-(Oic)-I-(Pen)+IP-((S)-(1-Piperidin-3-yl)-acetic acid)-OH]
160 nM | 150 nM | [NMeA]ICSRSLP[Oic]I[Pen]IP[(N-Benzyl)D]-NH2 (disulfide 3-11) [Example 462: ((N-Me)A)-IC+SRSLP-(Oic)-I-(Pen)+IP-((N-Benzyl)D)-NH2]
180 nM | 51 nM | [Nip(3R)]ICSRSLP[Oic]I[Pen]I-OH (disulfide 3-11; N-terminus assumed; SMILES CC[C@H](C)[C@H](NC(=O)[C@H]1NC(=O)[C@H]([C@@H](C)CC)NC(=O)[C@@H]2C[C@@H]3CCCC[C@@H]3N2C(=O)[C@@H]2CCCN2C(=O)[C@H](CC(C)C)NC(=O)[C@H](CO)NC(=O)[C@H](CCCNC(=N)N)NC(=O)[C@H](CO)NC(=O)[C@@H](NC(=O)[C@@H](NC(=O)[C@@H]2CCCNC2)[C@@H](C)CC)CSSC1(C)C)C(=O)O) [Example 459: ((R)-Piperidine-3-carboxylic acid)-IC+SRSLP-(Oic)-I-(Pen)+I-OH]
94 nM | 120 nM | [Sar]ICSRSLP[Oic]I[Pen]IPGD-OH (disulfide 3-11; N-terminus assumed; SMILES CC[C@H](C)[C@H](NC(=O)CNC)C(=O)N[C@H]1CSSC(C)(C)[C@@H](C(=O)N[C@H](C(=O)N2CCC[C@H]2C(=O)NCC(=O)N[C@@H](CC(=O)O)C(=O)O)[C@@H](C)CC)NC(=O)[C@H]([C@@H](C)CC)NC(=O)[C@@H]2C[C@@H]3CCCC[C@@H]3N2C(=O)[C@@H]2CCCN2C(=O)[C@H](CC(C)C)NC(=O)[C@H](CO)NC(=O)[C@H](CCCNC(=N)N)NC(=O)[C@H](CO)NC1=O) [Example 464: ((N-Me)G)-IC+SRSLP-(Oic)-I-(Pen)+IPGD-OH]
45 nM | 44.5 nM | [Sar]ICSRSLP[Oic]I[Pen]IP[X3]-OH (disulfide 3-11; N-terminus assumed; SMILES CC[C@H](C)[C@H](NC(=O)CNC)C(=O)N[C@H]1CSSC(C)(C)[C@@H](C(=O)N[C@H](C(=O)N2CCC[C@H]2C(=O)N[C@H]2CC[C@@H](C(=O)O)C2)[C@@H](C)CC)NC(=O)[C@H]([C@@H](C)CC)NC(=O)[C@@H]2C[C@@H]3CCCC[C@@H]3N2C(=O)[C@@H]2CCCN2C(=O)[C@H](CC(C)C)NC(=O)[C@H](CO)NC(=O)[C@H](CCCNC(=N)N)NC(=O)[C@H](CO)NC1=O) [Example 449: ((N-Me)G)-IC+SRSLP-(Oic)-I-(Pen)+IP-((1R,3S)-3-(Amino)cyclopentanecarboxylic acid)-OH]
38 nM | 32 nM | [Sar]ICSRSLP[Oic]I[Pen]IP[X9]-OH (disulfide 3-11; N-terminus assumed; SMILES CC[C@H](C)[C@H](NC(=O)CNC)C(=O)N[C@H]1CSSC(C)(C)[C@@H](C(=O)N[C@H](C(=O)N2CCC[C@H]2C(=O)N2CCC[C@H]2CCC(=O)O)[C@@H](C)CC)NC(=O)[C@H]([C@@H](C)CC)NC(=O)[C@@H]2C[C@@H]3CCCC[C@@H]3N2C(=O)[C@@H]2CCCN2C(=O)[C@H](CC(C)C)NC(=O)[C@H](CO)NC(=O)[C@H](CCCNC(=N)N)NC(=O)[C@H](CO)NC1=O) [Example 453: ((N-Me)G)-IC+SRSLP-(Oic)-I-(Pen)+IP-((S)-3-(1-Pyrrolidine-2-yl)-propionic acid)-OH]
20 nM | 5 nM | X14-ICSRSLP[Oic]I[Pen]IPD-OH (disulfide 2-10; SMILES CC[C@H](C)[C@H](NC(=O)CN1CC(=O)NC1=O)C(=O)N[C@H]1CSSC(C)(C)[C@@H](C(=O)N[C@H](C(=O)N2CCC[C@H]2C(=O)N[C@@H](CC(=O)O)C(=O)O)[C@@H](C)CC)NC(=O)[C@H]([C@@H](C)CC)NC(=O)[C@@H]2C[C@@H]3CCCC[C@@H]3N2C(=O)[C@@H]2CCCN2C(=O)[C@H](CC(C)C)NC(=O)[C@H](CO)NC(=O)[C@H](CCCNC(=N)N)NC(=O)[C@H](CO)NC1=O) [Example 457: ((2,4-dioxoimidazolidin-1-yl)acetic acid)-IC+SRSLP-(Oic)-I-(Pen)+IPD-OH]
41 nM | 32 nM | [Sar]ICSRSLP[Oic]I[Pen]IP[β3hP]-OH (disulfide 3-11; N-terminus assumed; SMILES CC[C@H](C)[C@H](NC(=O)CNC)C(=O)N[C@H]1CSSC(C)(C)[C@@H](C(=O)N[C@H](C(=O)N2CCC[C@H]2C(=O)N2CCC[C@H]2CC(=O)O)[C@@H](C)CC)NC(=O)[C@H]([C@@H](C)CC)NC(=O)[C@@H]2C[C@@H]3CCCC[C@@H]3N2C(=O)[C@@H]2CCCN2C(=O)[C@H](CC(C)C)NC(=O)[C@H](CO)NC(=O)[C@H](CCCNC(=N)N)NC(=O)[C@H](CO)NC1=O) [Example 455: ((N-Me)G)-IC+SRSLP-(Oic)-I-(Pen)+IP-(beta-homo-P)-OH]
31 nM | 52 nM | [Sar]ICSRSLP[Oic]I[Pen]IP[X8]-OH (disulfide 3-11; N-terminus assumed; SMILES CC[C@H](C)[C@H](NC(=O)CNC)C(=O)N[C@H]1CSSC(C)(C)[C@@H](C(=O)N[C@H](C(=O)N2CCC[C@H]2C(=O)N[C@H](CCC(=O)O)CC(C)C)[C@@H](C)CC)NC(=O)[C@H]([C@@H](C)CC)NC(=O)[C@@H]2C[C@@H]3CCCC[C@@H]3N2C(=O)[C@@H]2CCCN2C(=O)[C@H](CC(C)C)NC(=O)[C@H](CO)NC(=O)[C@H](CCCNC(=N)N)NC(=O)[C@H](CO)NC1=O) [Example 450: ((N-Me)G)-IC+SRSLP-(Oic)-I-(Pen)+IP-((R)-4-Amino-6-methylheptanoic acid)-OH]
190 nM | 100 nM | [Sar]ICSRSLP[Oic]I[Pen]IPDK-OH (disulfide 3-11; N-terminus assumed; SMILES CC[C@H](C)[C@H](NC(=O)CNC)C(=O)N[C@H]1CSSC(C)(C)[C@@H](C(=O)N[C@H](C(=O)N2CCC[C@H]2C(=O)N[C@@H](CC(=O)O)C(=O)N[C@@H](CCCCN)C(=O)O)[C@@H](C)CC)NC(=O)[C@H]([C@@H](C)CC)NC(=O)[C@@H]2C[C@@H]3CCCC[C@@H]3N2C(=O)[C@@H]2CCCN2C(=O)[C@H](CC(C)C)NC(=O)[C@H](CO)NC(=O)[C@H](CCCNC(=N)N)NC(=O)[C@H](CO)NC1=O) [Example 463: ((N-Me)G)-IC+SRSLP-(Oic)-I-(Pen)+IPDK-OH]
127 nM | 79 nM | [Sar]ICSRSLP[Oic]I[Pen]IPN-OH (disulfide 3-11; N-terminus assumed; SMILES CC[C@H](C)[C@H](NC(=O)CNC)C(=O)N[C@H]1CSSC(C)(C)[C@@H](C(=O)N[C@H](C(=O)N2CCC[C@H]2C(=O)N[C@@H](CC(N)=O)C(=O)O)[C@@H](C)CC)NC(=O)[C@H]([C@@H](C)CC)NC(=O)[C@@H]2C[C@@H]3CCCC[C@@H]3N2C(=O)[C@@H]2CCCN2C(=O)[C@H](CC(C)C)NC(=O)[C@H](CO)NC(=O)[C@H](CCCNC(=N)N)NC(=O)[C@H](CO)NC1=O) [Example 454: ((N-Me)G)-IC+SRSLP-(Oic)-I-(Pen)+IPN-OH]
250 nM | 100 nM | AICSRSLP[Oic]I[Pen]IP[βDap]-OH (disulfide 3-11; also: Dap at position 14 joined through its 3-amino group) [Example 458: AIC+SRSLP-(Oic)-I-(Pen)+IP-(*Dap)-OH]
